Test [1] deals with Csx28 (Prevotella buccae Type VI-B2 CRISPR-Cas accessory protein), recombinant, DDM-solubilised (Prevotella buccae ATCC 33574). Description: cryo-EM structure.
Test [2] shares this target. Description: SEC-MALS.

Values joined by “and” are separate entries in the source; they are usually repeats but may differ in a detail not shown here. Equal entries are not always repeated.

Here are results for one substance from doi:10.1101/2021.11.02.466367.

Take “Csx28 (Prevotella buccae Type VI-B2 CRISPR-Cas accessory protein), recombinant, DDM-solubilised (natural protein)”: the stoichiometry N is 8 and 16 in test [1]; 8 and 16 in test [2].
